Measurements reported in patent US20210002644, “ANTI-CHYMASE APTAMER AND USE FOR SAME” (RIBOMIC INC., published 2021).

T1: chymase (native, human skin mast cell) (Homo sapiens, UniProt P23946 P23946:22-247)
T1 sequence: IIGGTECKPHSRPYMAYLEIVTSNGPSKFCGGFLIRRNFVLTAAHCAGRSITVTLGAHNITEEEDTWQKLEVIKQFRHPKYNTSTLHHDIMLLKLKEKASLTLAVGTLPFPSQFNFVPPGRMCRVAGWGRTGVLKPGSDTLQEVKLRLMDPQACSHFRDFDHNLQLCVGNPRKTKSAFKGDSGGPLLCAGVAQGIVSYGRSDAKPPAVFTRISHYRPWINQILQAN

B1: SEQ ID NO: 17(2) (ssRNA)
RNA: GAUGAUCGGACAUAACAUUGUUGGGGUGUCAA
modifications: idT-G(M)A(M)U(F)G(M)A(M)U(F)C(F)G(M)G(M)A(M)C(F)A(M)U(F)AAC(F)AU(F)U(F)G(M)U(F)U(F)G(M)GG(M)G(M)U(F)G(M)U(F)C(F)A(M)A(M)-idT (F=2'-F, M=2'-OMe)
B2: SEQ ID NO: 17(6) (mixed)
RNA: B1 RNA
modifications: idT-G(M)A(M)U(F)G(M)A(M)U(F)C(F)G(M)G(M)A(M)C(F)A(M)U(F)AAC(F)A(M)TTG(M)U(F)U(F)G(M)GG(M)G(M)TG(M)TCA(M)A(M)-idT (F=2'-F, M=2'-OMe)
B3: SEQ ID NO: 17(19) (mixed)
RNA: B1 RNA
modifications: idT-G(M)A(M)U(F)G(M)A(M)U(F)C(F)G(M)G(M)A(M)C(F)A(M)U(F)AsAC(F)A(M)TTG(M)U(F)U(F)G(M)GG(M)G(M)TG(M)TCA(M)A(M)-idT (F=2'-F, M=2'-OMe, s=PS)
B4: SEQ ID NO: 17(11) (mixed)
RNA: B1 RNA
modifications: idT-G(M)A(M)U(F)G(M)A(M)U(F)C(F)G(M)G(M)A(M)C(F)A(M)U(F)AAC(F)A(M)TTG(M)U(F)U(M)G(M)GG(M)G(M)TG(M)TCA(M)A(M)-idT (F=2'-F, M=2'-OMe)
B5: SEQ ID NO: 17(21) (mixed)
RNA: B1 RNA
modifications: idT-G(M)A(M)U(F)G(M)A(M)U(F)C(F)G(M)G(M)A(M)C(F)A(M)U(F)AAC(F)A(M)TTG(M)U(F)U(F)G(M)GsG(M)G(M)TG(M)TCA(M)A(M)-idT (F=2'-F, M=2'-OMe, s=PS)
B6: SEQ ID NO: 17(12) (mixed)
RNA: B1 RNA
modifications: X-S-G(M)A(M)U(F)G(M)A(M)U(F)C(F)G(M)G(M)A(M)C(F)A(M)U(F)AAC(F)A(M)TTG(M)U(F)U(F)G(M)GG(M)G(M)TG(M)TCA(M)A(M)-idT (F=2'-F, M=2'-OMe; X=Phe-Cys peptide, S=thiol)
B7: SEQ ID NO: 17(13) (mixed)
RNA: B1 RNA
modifications: Y-S-G(M)A(M)U(F)G(M)A(M)U(F)C(F)G(M)G(M)A(M)C(F)A(M)U(F)AAC(F)A(M)TTG(M)U(F)U(F)G(M)GG(M)G(M)TG(M)TCA(M)A(M)-idT (F=2'-F, M=2'-OMe; Y=Cys-Phe peptide, S=thiol)
B8: SEQ ID NO: 17(14) (mixed)
RNA: B1 RNA
modifications: idT-G(M)A(M)U(F)G(M)A(M)U(F)C(F)G(M)G(M)A(M)C(F)A(M)U(F)AAC(F)A(M)TTG(M)U(F)U(F)G(M)GG(M)G(M)TG(M)TCA(M)A(M)-S-Y (F=2'-F, M=2'-OMe; Y=Cys-Phe peptide, S=thiol)
B9: SEQ ID NO: 17(9) (mixed)
RNA: B1 RNA
modifications: idT-G(M)A(M)U(F)G(M)A(M)U(F)C(F)G(M)G(M)A(M)C(F)A(M)U(F)AAC(M)A(M)TTG(M)U(F)U(F)G(M)GG(M)G(M)TG(M)TCA(M)A(M)-idT (F=2'-F, M=2'-OMe)
B10: SEQ ID NO: 17(4) (mixed)
RNA: B1 RNA
modifications: idT-G(M)A(M)U(F)G(M)A(M)U(F)C(F)G(M)G(M)A(M)C(F)A(M)U(F)AAC(F)ATTG(M)U(F)U(F)G(M)GG(M)G(M)U(F)G(M)U(F)C(F)A(M)A(M)-idT (F=2'-F, M=2'-OMe)
B11: SEQ ID NO: 17(18) (mixed)
RNA: B1 RNA
modifications: idT-G(M)A(M)U(F)G(M)A(M)U(F)C(F)G(M)G(M)A(M)C(F)A(M)U(F)sAAC(F)A(M)TTG(M)U(F)U(F)G(M)GG(M)G(M)TG(M)TCA(M)A(M)-idT (F=2'-F, M=2'-OMe, s=PS)
B12: SEQ ID NO: 17(10) (mixed)
RNA: B1 RNA
modifications: idT-G(M)A(M)U(F)G(M)A(M)U(F)C(F)G(M)G(M)A(M)C(F)A(M)U(F)AAC(F)A(M)TTG(M)U(M)U(F)G(M)GG(M)G(M)TG(M)TCA(M)A(M)-idT (F=2'-F, M=2'-OMe)
B13: SEQ ID NO: 17(16) (mixed)
RNA: B1 RNA
modifications: idT-G(M)A(M)U(F)G(M)A(M)U(F)C(F)G(M)G(M)A(M)C(F)A(M)U(F)AAC(F)A(M)TTG(M)U(F)U(F)G(M)GG(M)G(M)TG(M)TCA(PHE)A(M)-idT (F=2'-F, M=2'-OMe, PHE=8-(propyl)phenyl-rA)
B14: SEQ ID NO: 17(5) (mixed)
RNA: B1 RNA
modifications: idT-G(M)A(M)U(F)G(M)A(M)U(F)C(F)G(M)G(M)A(M)C(F)A(M)U(F)AAC(F)ATTG(M)U(F)U(F)G(M)GG(M)G(M)TG(M)TCA(M)A(M)-idT (F=2'-F, M=2'-OMe)
B15: SEQ ID NO: 17(20) (mixed)
RNA: B1 RNA
modifications: idT-G(M)A(M)U(F)G(M)A(M)U(F)C(F)G(M)G(M)A(M)C(F)A(M)U(F)AAsC(F)A(M)TTG(M)U(F)U(F)G(M)GG(M)G(M)TG(M)TCA(M)A(M)-idT (F=2'-F, M=2'-OMe, s=PS)
B16: SEQ ID NO: 17(15) (mixed)
RNA: B1 RNA
modifications: idT-G(M)A(PHE)U(F)G(M)A(M)U(F)C(F)G(M)G(M)A(M)C(F)A(M)U(F)AAC(F)A(M)TTG(M)U(F)U(F)G(M)GG(M)G(M)TG(M)TCA(M)A(M)-idT (F=2'-F, M=2'-OMe, PHE=8-(propyl)phenyl-rA)
B17: SEQ ID NO: 17(23) (ssRNA)
RNA: B1 RNA
modifications: idT-G(M)A(PHE)U(F)G(M)A(M)U(F)C(F)G(M)G(M)A(M)C(F)A(M)U(F)AAC(F)AU(F)U(F)G(M)U(F)U(F)G(M)GG(M)G(M)U(F)G(M)U(F)C(F)A(M)A(M)-idT (F=2'-F, M=2'-OMe, PHE=8-(propyl)phenyl-rA)
B18: SEQ ID NO: 17(17) (mixed)
RNA: B1 RNA
modifications: idT-G(M)A(M)U(F)G(M)A(M)U(F)C(F)G(M)G(M)A(M)C(F)A(M)U(F)AAC(F)A(M)TTG(M)U(F)U(F)G(M)GG(M)G(M)TG(M)TCA(M)A(PHE)-idT (F=2'-F, M=2'-OMe, PHE=8-(propyl)phenyl-rA)
B19: SEQ ID NO: 17(8) (mixed)
RNA: B1 RNA
modifications: idT-G(M)A(M)U(F)G(M)A(M)U(F)C(F)G(M)G(M)A(M)C(F)A(M)U(M)AAC(F)A(M)TTG(M)U(F)U(F)G(M)GG(M)G(M)TG(M)TCA(M)A(M)-idT (F=2'-F, M=2'-OMe)
B20: SEQ ID NO: 17(7) (mixed)
RNA: B1 RNA
modifications: idT-G(M)A(M)TG(M)A(M)U(F)C(F)G(M)G(M)A(M)CA(M)U(F)AAC(F)A(M)TTG(M)U(F)U(F)G(M)GG(M)G(M)TG(M)TCA(M)A(M)-idT (F=2'-F, M=2'-OMe; printed LT(F) read as U(F))
B21: SEQ ID NO: 33(1) (mixed)
RNA: AUGAUCGGACAUAACUAAUUAGGGGUGUCAA
modifications: idT-A(M)U(M)G(M)A(M)U(F)C(F)G(M)G(M)A(M)C(M)A(M)U(M)AAC(M)U(F)AAU(F)U(M)AG(M)GG(M)G(M)TG(M)U(M)C(M)A(M)A(M)-idT (F=2'-F, M=2'-OMe)
B22: SEQ ID NO: 33(4) (mixed)
RNA: B21 RNA
modifications: idT-A(PHE)U(M)G(M)A(M)U(F)C(F)G(M)G(M)A(M)C(F)A(M)U(M)AAC(M)U(F)A(M)A(M)U(F)U(M)A(M)G(M)GG(M)G(M)TG(M)TC(M)A(M)A(M)-idT (F=2'-F, M=2'-OMe, PHE=8-(propyl)phenyl-rA; printed 1J(F) read as U(F))
B23: SEQ ID NO: 33(5) (mixed)
RNA: B21 RNA
modifications: idT-A(PHE)U(M)G(M)A(M)U(F)C(F)G(M)G(M)A(M)C(F)A(M)U(M)AAC(M)U(F)A(M)A(M)U(F)U(M)A(M)G(M)GG(M)G(M)TG(M)U(M)C(M)A(M)A(M)-idT (F=2'-F, M=2'-OMe, PHE=8-(propyl)phenyl-rA)
B24: SEQ ID NO: 33(2) (mixed)
RNA: B21 RNA
modifications: idT-A(M)U(M)G(M)A(M)U(F)C(F)G(M)G(M)A(M)C(F)A(M)U(M)AAC(M)U(F)AAU(F)U(M)AG(M)GG(M)G(M)TG(M)TC(M)A(M)A(M)-idT (F=2'-F, M=2'-OMe)
B25: SEQ ID NO: 33(3) (mixed)
RNA: B21 RNA
modifications: idT-A(PHE)U(M)G(M)A(M)U(F)C(F)G(M)G(M)A(M)C(M)A(M)U(M)AAC(M)U(F)A(M)A(M)U(F)U(M)A(M)G(M)GG(M)G(M)TG(M)U(M)C(M)A(M)A(M)-idT (F=2'-F, M=2'-OMe, PHE=8-(propyl)phenyl-rA)

Columns and labels:
[1] = target: T1, chymase (native, human skin mast cell); experiment: inhibition; angiotensin I substrate; details: tags: Calbiochem Human Skin
Description: (§1) The total volume of solution for an enzyme reaction in the assay was set to 50 μL, and the reaction was performed in solution C buffer. At first, native (manufactured by Calbiochem) was diluted with solution C to give 5 μL thereof. Here, the native is chymase purified from human skin mast cell. The nucleic acid was serially diluted with solution C at a concentration of 0.0027-2 μM to give 25 μL thereof. The chymase solution (5 μL) and the nucleic acid solution (25 μL) were mixed, and the mixture was incubated at 37° C. for 5 min. On the other hand, […] angiotensin I (manufactured by PEPTIDE […], INC.) was prepared in solution C to give 20 μL thereof, which was incubated at 37° C. for 5 min. The angiotensin I solution was added to a mixture of chymase and nucleic acid to start an enzyme reaction. The final chymase concentration of the reaction solution was 0.5 nM, and the final substrate concentration was 50 μM. After reaction at 37° C. for 90 min, ice-cooled 30% trichloroacetic acid solution (25 μL) was added to quench the reaction. The whole mixture was centrifuged at 4° C., 14000 rpm for 10 min, and the supernatant (30 μL) was used for the next fluorescence induction reaction.
(§2) The above-mentioned supernatant (30 μL) was added to a 96 well plate (black, manufactured by Costar), a solution (15 μL) of 2% o-phthalaldehyde (manufactured by SIGMA) in methanol and 0.3M NaOH solution (170 μL) were added to each well, and the mixture was incubated at room temperature for 10 min. Then, 3M HCl solution (25 μL) was added to quench the reaction. The plate was set on a microplate reader SpectraMax190 (manufactured by Molecular device) and the fluorescence intensity was measured at an excitation wavelength of 355 nm and a fluorescence wavelength of 460 nm.
All nucleic acids of SEQ ID NO: 17(1)-17(25) were prepared by chemical synthesis. In the evaluation of SEQ ID NO: 17(1)-17(25), a method similar to the evaluation method of inhibitory activity against chymase shown in Example 1 by using angiotensin I as a substrate was used for measurement. In the Table, the IC₅₀ value is a mean of 2 or 3 measurements.

[2] = target: T1, chymase (native, human skin mast cell); experiment: inhibition; angiotensin I substrate; details: tags: Calbiochem Human Skin; remark: listed apart in the source
Description: as §1, §2
All nucleic acids of SEQ ID NO: 33(1)-33(18) were prepared by chemical synthesis. The aptamers shown by these sequences were measured by a method similar to the inhibitory activity evaluation method for chymase inhibitory activity shown in Example 1 by using angiotensin I as a substrate. In the Table, the IC₅₀ value is a mean of 2 or 3 measurements.

| Binder | IC50 [1] | IC50 [2] |
| --- | --- | --- |
| B1 | 0.21 nM |  |
| B2 | 0.14 nM |  |
| B3 | 0.19 nM |  |
| B4 | 0.14 nM |  |
| B5 | 0.19 nM |  |
| B6 | 0.19 nM |  |
| B7 | 0.16 nM |  |
| B8 | 0.19 nM |  |
| B9 | 0.16 nM |  |
| B10 | 0.2 nM |  |
| B11 | 0.15 nM |  |
| B12 | 0.13 nM |  |
| B13 | 0.18 nM |  |
| B14 | 0.17 nM |  |
| B15 | 0.18 nM |  |
| B16 | 0.13 nM |  |
| B17 | 0.16 nM |  |
| B18 | 0.19 nM |  |
| B19 | 0.13 nM |  |
| B20 | 0.17 nM |  |
| B21 |  | 0.074 nM |
| B22 |  | 0.072 nM |
| B23 |  | 0.076 nM |
| B24 |  | 0.078 nM |
| B25 |  | 0.071 nM |
